According to US20210002376A1:
Read-outs that look alike come from different tables or passages of the source.

What was measured:
DR5-Fc fusion protein [1] = target: DR5-Fc fusion protein (UniProt O14763); test: ELISA, coated DR5-Fc, anti-human Fab-HRP
DR5-Fc fusion protein [2] = target: DR5-Fc fusion protein (UniProt O14763); test: ELISA, coated DR5-Fc, anti-human Fab-HRP; remark: listed apart in the source

Drozitumab (antibody)
EC50 (DR5-Fc fusion protein [1]): 1.2 nM
EC50 (DR5-Fc fusion protein [2]): 1.4 nM
